In one experiment the target is C1.844.hu41. Nature of the experiment: FACS cell binding.
The next experiment addresses C1.844.hu31. Kind of experiment: FACS cell binding.
For experiment [1], the target named is T1, human ATP Binding Cassette Subfamily C Member 1 (ABCC1) (UniProt P33527 1-1531). Nature of the experiment: FACS titration on C6-hC1 cells.
Experiment [2] has as its target T1, human ATP Binding Cassette Subfamily C …. Nature of the experiment: FACS titration on H69AR cells.
Experiment [3] has as its target T2, cynomolgus monkey ABCC1 (UniProt Q864R9 1-1531). Nature of the experiment: FACS titration on C6 cells; C6 cells.
For experiment [4], the target named is T2, cynomolgus monkey ABCC1. Nature of the experiment: FACS titration on C6-cC1 cells.
Experiment [5] has as its target T2, cynomolgus monkey ABCC1. Kind of experiment: FACS titration on C6-cC1 cells. This is another data set of the same source.
Experiment [6] concerns the target T1, human ATP Binding Cassette Subfamily C …. Kind of experiment: FACS titration on C6 cells.
The target in experiment [7] is T2, cynomolgus monkey ABCC1. Kind of experiment: FACS titration on C6 cells.
Experiment [8] has as its target T1, human ATP Binding Cassette Subfamily C …. Nature of the experiment: FACS titration on C6-hC1 cells. The source holds these as a separate data set.
The target is the same in experiment [9]. Nature of the experiment: FACS titration on C6 cells. The source holds these as a separate data set.
The target of experiment [10] is T2, cynomolgus monkey ABCC1. Kind of experiment: FACS titration on C6-cC1 cells; C6 cells.
In experiment [11] the target is T1, human ATP Binding Cassette Subfamily C …. Kind of experiment: FACS cell binding.
In experiment [12] the target is T2, cynomolgus monkey ABCC1. Nature of the experiment: FACS cell binding.
The next experiment addresses C1.861.hu31. Kind of experiment: FACS cell binding.
The target of the next experiment is C1.861.hu51. Kind of experiment: FACS cell binding.
A further experiment deals with C1.831.hu31. Kind of experiment: FACS cell binding.

B1: C6.hC1 (other)
chain: MALRGFCSADGSDPLWDWNVTWNTSNPDFTKCFQNTVLVWVPCFYLWACFPFYFLYLSRHDRGYIQMTPLNKTKTALGFLLWIVCWADLFYSFWERSRGIFLAPVFLVSPTLLGITMLLATFLIQLERRKGVQSSGIMLTFWLVALVCALAILRSKIMTALKEDAQVDLFRDITFYVYFSLLLIQLVLSCFSDRSPLFSETIHDPNPCPESSASFLSRITFWWITGLIVRGYRQPLEGSDLWSLNKEDTSEQVVPVLVKNWKKECAKTRKQPVKVVYSSKDPAQPKESSKVDANEEVEALIVKSPQKEWNPSLFKVLYKTFGPYFLMSFFFKAIHDLMMFSGPQILKLLIKFVNDTKAPDWQGYFYTVLLFVTACLQTLVLHQYFHICFVSGMRIKTAVIGAVYRKALVITNSARKSSTVGEIVNLMSVDAQRFMDLATYINMIWSAPLQVILALYLLWLNLGPSVLAGVAVMVLMVPVNAVMAMKTKTYQVAHMKSKDNRIKLMNEILNGIKVLKLYAWELAFKDKVLAIRQEELKVLKKSAYLSAVGTFTWVCTPFLVALCTFAVYVTIDENNILDAQTAFVSLALFNILRFPLNILPMVISSIVQASVSLKRLRIFLSHEELEPDSIERRPVKDGGGTNSITVRNATFTWARSDPPTLNGITFSIPEGALVAVVGQVGCGKSSLLSALLAEMDKVEGHVAIKGSVAYVPQQAWIQNDSLRENILFGCQLEEPYYRSVIQACALLPDLEILPSGDRTEIGEKGVNLSGGQKQRVSLARAVYSNADIYLFDDPLSAVDAHVGKHIFENVIGPKGMLKNKTRILVTHSMSYLPQVDVIIVMSGGKISEMGSYQELLARDGAFAEFLRTYASTEQEQDAEENGVTGVSGPGKEAKQMENGMLVTDSAGKQLQRQLSSSSSYSGDISRHHNSTAELQKAEAKKEETWKLMEADKAQTGQVKLSVYWDYMKAIGLFISFLSIFLFMCNHVSALASNYWLSLWTDDPIVNGTQEHTKVRLSVYGALGISQGIAVFGYSMAVSIGGILASRCLHVDLLHSILRSPMSFFERTPSGNLVNRFSKELDTVDSMIPEVIKMFMGSLFNVIGACIVILLATPIAAIIIPPLGLIYFFVQRFYVASSRQLKRLESVSRSPVYSHFNETLLGVSVIRAFEEQERFIHQSDLKVDENQKAYYPSIVANRWLAVRLECVGNCIVLFAALFAVISRHSLSAGLVGLSVSYSLQVTTYLNWLVRMSSEMETNIVAVERLKEYSETEKEAPWQIQETAPPSSWPQVGRVEFRNYCLRYREDLDFVLRHINVTINGGEKVGIVGRTGAGKSSLTLGLFRINESAEGEIIIDGINIAKIGLHDLRFKITIIPQDPVLFSGSLRMNLDPFSQYSDEEVWTSLELAHLKDFVSALPDKLDHECAEGGENLSVGQRQLVCLARALLRKTKILVLDEATAAVDLETDDLIQSTIRTQFEDCTVLTIAHRLNTIMDYTRVIVLDKGEIQEYGAPSDLLQQRGLFYSMAKDAGLV
Turning to B1, the Kd with C1.844.hu41 was found to be 94 nM; with C1.844.hu31, 518 nM.

B2: C1.773 (antibody, V domains shown)
VH: EIQLAQSGPELVKPGASVKMSCKASGYSFIGYFMNWVKQSHGKSLEWIGRINPYNGDTFYNQKFKGKATLTVDKSSSTAHMELRSLTSEDSALYYCTRSGWGYDVYSFDYWGQGTLVTVSS
VL: DIQMTQTPSSLSASLGDRVTISCRASQDISNYLNWYQQKPDGTVKLLIYYTSRLHSGVPSRFSGSGSGTDYSLTISNLEQEDIATYFCQQGNTLPWTFGGGTKLEIK
For the molecule B2, the Kd turned out to be 12.7 nM in experiment [1]; 2.5 nM in [2]; 19.1 nM with cynomolgus monkey ABCC1 [3]; 4.6 nM with cynomolgus monkey ABCC1 [4]; 5.9 nM with cynomolgus monkey ABCC1 [5]; 1.9 nM in [6]. Further, the Kd in the experiment with cynomolgus monkey ABCC1 [7] is 2.7 nM; in experiment [8] it was 3.7 nM; in experiment [9] it was 6.5 nM; in the experiment with cynomolgus monkey ABCC1 [10], 4 nM.

B3: C1.851.hu15 (antibody, V domains shown)
VH: EVQLQESGPGLVKPSETLSLTCTVSGFSLTNNGVSWIRQPPGKGLEWIAAISSGGNIYYNSAFKSRLTISRDTSKNQVSLKLSSVTAADTAVYYCARHRGYYGYNWGYFDYWGQGTLVTVSS
VL: DVVMTQAPSSLSASLGERISLTCRASQDIYGSLNWFQQKPDGTIKLLIYGTSSLDSGVPKRFSGSRSGSDYSLTISSLESEDFADYYCLQYASSPYTFGGGTKLEIK
As to B3, the dissociation constant Kd in [11] was 119 nM; in the experiment with cynomolgus monkey ABCC1 [12] it was 210 nM.

B4: C1.851.hu14 (antibody, V domains shown)
VH: EVQLQESGPGLVKPSETLSLTCTVSGFSLTNNGVSWIRQPPGKGLEWIAAISSGGNIYYNSAFKSRLTISRDTSKNQVSLKLSSVTAADTAVYYCARHRGYYGYNWGYFDYWGQGTLVTVSS
VL: DVVMTQTPLSLPVSLGDQASISCRSSQSIVHSNGNTYLEWYLQKPGQSPKLLIYKVSNRFSGVPDRFSGSGTGTDFTLKISRVEAEDLGVYYCFQGSHVPRTFGGGTKLEIK
In the case of B4, the Kd in [11] worked out at 148 nM; with cynomolgus monkey ABCC1 [12], 2030 nM.

B5: C1.851.hu12 (antibody, V domains shown)
VH: EVQLQESGPGLVKPSETLSLTCTVSGFSLTNNGVSWIRQPPGKGLEWIAAISSGGNIYYNSAFKSRLTISRDTSKNQVSLKLSSVTAADTAVYYCARHRGYYGYNWGYFDYWGQGTLVTVSS
VL: DIQLTQSPSSLSASVGDRVTITCKGSQNINNYLAWYQQKPGKAPKLLIYKTNSLQTGIPSRFSGSGSGTDYTLTISSLQPEDFATYYCYQYNNGYTFGQGTKLEIK
As for B5, the Kd in [11] is 153 nM; with cynomolgus monkey ABCC1 [12] it was 181 nM.

B6: C6.cC1 (other)
chain: MALRGFCSADGSDPLWDWNVTWYTSNPDFTKCFQNTVLVWVPCFYLWACFPFYFLYLSRHDRGYIQMTLLNKTKTALGFLLWIVCWADLFYSFWERSRGIFLAPVFLVSPTLLGITMLLATFLIQLERRKGVQSSGIMLTFWLVALLCALAILRSKIMTALKEDVQVDLFRDMTFYVYFSLVLIQLVLSCFSDRSPLFSETIHDPNPCPESSASFLSRITFWWITGLIVRGYRQPLEGSDLWSLNKEDTSEQVVPVLVKNWKKECAKTRKQPVKVVYSSKDPAQPKDSSKVDANEEVEALIVKSPQKEWNPSLFKVLYKTFGPYFLMSFFFKAIHDLMMFSGPEILKLLINFVNDTKAPDWQGYFYTALLFVAACLQTLVLHQYFHICFVSGMRIKTAVIGAVYRKALVITNAARKSSTVGEIVNLMSVDAQRFMDLATYINMIWSAPLQVILALYLLWRNLGPPILAGVAVMVLMVPVNAVMAMKTKTYQVAHMKSKDNRIKLMNEILNGIKVLKLYAWELAFKDKVLAIRQEELKVLKKSAYLAAVGTFTWVCTPFLVALCTFAVYVTIDKNNVLDAQKAFVSLALFNILRFPLNILPMVISSIVQASVSLKRLRIFLSHEELEPDSIERRPVKDGGDTNSITVRNATFTWARSDPPTLNGITFSIPEGALVAVVGQVGCGKSSLLSALLAEMDKVEGHVALKGSVAYVPQQAWIQNDSLQENILFGCQLEEPYYRSVIQACALLPDLEILPSGDRTEIGEKGVNLSGGQKQRVSLARAVYCNADIYLFDDPLSAVDAHVGKHIFENVIGPKGMLKNKTRILVTHSMSYLPQVDVIIVMSGGKISEMGSYQELLARDGAFAEFLRTYASAEQEQDPEDNGVTGVSGPGKEAKQMENGMLVTDSAGKQLQRQLSSSSSYSGDVSRQHNSTAELQKDGAKKEETWKLMEADKAQTGQVKLSVYWDYMKAIGLFISFLSIFLFICNHVAALASNYWLSLWTDDPIVNGTQEHTKVRLSVYGALGISQGIAVFGYSMAVSIGGILASRCLHVDLLHSILRSPMSFFERTPSGNLVNRFSKELDTVDSMIPEVIKMFMGSLFNVIGACIVILLATPIAAIIIPPLGLIYFFVQRFYVASSRQLKRLESVSRSPVYSHFNETLLGVSVIRAFEEQERFIHQSDLKVDENQKAYYPSIVANRWLAVRLECVGNCIVLFAALFAVISRHSLSAGLVGLSVSYSLQVTTYLNWLVRMSSEMETNIVAVERLKEYSETEKEAPWQIQETAPPSNWPQVGRVEFRNYCLRYREDLDFVLRHINVTINGGEKVGIVGRTGAGKSSLTLGLFRINESAEGEIIIDGINIARIGLHDLRFKITIIPQDPVLFSGSLRMNLDPFSQYSDEEVWTSLELAHLKGFVSALPDKLDHECAEGGENLSVGQRQLVCLARALLRKTKILVLDEATAAVDLETDDLIQSTIRTQFEDCTVLTIAHRLNTIMDYTRVIVLDKGEIQEYGAPSDLLQQRGLFYNMARDAGLV
B6: the Kd in the experiment with C1.861.hu31 stood at 110 nM; with C1.844.hu41 it was 107 nM; in the experiment with C1.844.hu31 it was 253 nM; with C1.861.hu51, 125 nM; with C1.831.hu31 it was 1070 nM.

By Kd is commonly meant the equilibrium constant for the complex coming apart.
